Test results taken from the DeepSol protein solubility set.

Test: soluble on expression in E. coli; label from the status in PepcDB or PDB records
For “MGSDKIHHHHHHMDYRKLPHGNEKVSTIGIGSGSLKETTSKEIEDIVTYSMEEGVNLIDTVMYDTTAAEPINNALKGHRDDMLMQIHLGVWYPKGTYSRTRVPRNVKKGFEQELKKYSTNYADIGLISYVDRVKDFEKIMSNGIFDYAKKLKQDGTIRYLGISSHSEEICKLFIETGEIDVIMFSINAAYDFKPSWGKLNLKNERMELYQECEKQGVALTVMKAYGGGQLLNEKTSPFNHAMTVPQCIQYALDRPGVVSCISGVSSKADLDEALKYYSTSEKDRDYSFIASLPHRDIMGTCIYCNHCQPCPSGIDIGIVNKYLDLAKAGDELAKDHYLKLSKNANDCTNCGVCEKNCPFHVDIRGRMLKAKNYFDKTNSVKK”, the “soluble on expression in E. coli” value was “not soluble”.
With “LFKPNYHFFPITGWMNDPNGLIFWKGKYHMFYQYNPRKPEWGNICWGHAVSDDLVHWRHLPVALYPDDETHGVFSGSAVEKDGKMFLVYTYYRDPTHNKGEKETQCVVMSENGLDFVKYDGNPVISKPPEEGTHAFRDPKVNRSNGEWRMVLGSGKDEKIGRVLLYTSDDLFHWKYEGAIFEDETTKEIDCPDLVRIGEKDILIYSITSTNSVLFSMGELKEGKLNVEKRGLLDHGTDFYAAQTFFGTDRVVVIGWLQSWLRTGLYPTKREGWNGVMSLPRELYVENNELKVKPVDELLALRKRKVFETAKSGTFLLDVKENSYEIVCEFSGEIELRMGNESEEVVITKSRDELIVDTTRSGVSGGEVRKSTVEDEATNRIRAFLDSCSVEFFFNDSIAFSFRIHPENVYNILSVKSNQVKLEVFELENIWL” the “soluble on expression in E. coli” value was “soluble”.
With “MGRGIAQIIRHDEPTDEIVDKFYRQINNPVLANINLQWEGDGDSPIIYPCNPPDLFAEQPLVLFGKKPDARGGKLHITGIVAGGTHYQHTFDLNFEETGNPAIAQLWGRYRIKELMNLMVSGETKLGVEAVTDTALTYQMLSQYTAFVAVSDDVRVDSLQETVSVQVPVEMAEGISYLGIFGSAVSAAAPIMANMVLEHHHHHH” the “soluble on expression in E. coli” value was “not soluble”.
With “MTLRAARPEFLDLFPAGAEARRLADGFTWTEGPVYVPARSAVIFSDVRQNRTWAWSDDGQLSPEMHPSHHQNGHCLNKQGHLIACSHGLRRLERQREPGGEWESIADSFEGKKLNSPNDVCLAPDGSLWFSDPTYGIDKPEEGYGGEMELPGRWVFRLAPDGTLSAPIRDRVKPNGLAFLPSGNLLVSDTGDNATHRYCLNARGETEYQGVHFTVEPGKTDGLRVDAGGLIWASAGDGVHVLTPDGDELGRVLTPQTTSNLCFGGPEGRTLYMTVSTEFWSIETNVRGLEHHHHHH” the “soluble on expression in E. coli” value was “soluble”.
In the case of “MELEQREGTMAAVGFEEFSAPPGSELALPPLFGGHILESELETEVEFVSGGLGGSGLRERDEEEEAARGRRRRQRELNRRKYQALGRRCREIEQVNERVLNRLHQVQRITRRLQQERRFLMRVLDSYGDDYRASQFTIVLEDEGSQGTDAPTPGNAENEPPEKETLSPPRRTPAPPEPGSPAPGEGPSGRKRRRVPRDGRRAGNALTPELAPVQIKVEEDFGFEADEALDSSWVSRGPDKLLPYPTLASPASD”, the “soluble on expression in E. coli” value is reported as “soluble”.
In the case of “GPGSMGKYAAVIIGPAGSGKSTLCGVLAEHYATMGRSTHIANMDPAADLLPYEPSMDIRDLISLEDAMEGKGLGPNGGLVFCMEYLVTAGATWVSQQLGDYADDFIIVDMPGQVEVLSNQPAVPAFVRLLQQEGYYTTVLYLLDALATTADSGKFISGCMFSLSSMVCFDCPFINVLTKCDLLSKDFKENGMLEHFCMCDFDYMDLSRLPPRFRAMSRQIGALLTDFNLVTFRPVDIEDVGYVSNLCSVLDETLQVADEAEVQDHDLGDN”, the “soluble on expression in E. coli” value is reported as “soluble”.
In the case of “MVRMYEERTATFHSMNEGVIAIDNRLVITIFNEKAKQIFEVQGDLIGKVIWEVLKDSRLPEIVERNKAVYNEEIRVSGKVIMSSRIPIVMKKKVIGAVAIFQDRTEAAKMAEELTGVRNFVEALRVQNHEHMNKLHTIAGLIQLGKSEKALQLAFQASTEQENVTEFLHRSIQNDAAAGLLLSKIRRGRELGIAVHIDENSSLQQFPEHVDQHDIVVLLGNLIENAFGSFETVQSEDKRIDISIEQTDDILAILIEDNGCGIEPTHMPRLYDKGFTVNKTGGTGYGLYLVKQIIDKGSGTIEVDSHAGQGTSFSIVFPMKGE”, the “soluble on expression in E. coli” value is reported as “not soluble”.
In the case of “MSLKREIILYKSISTDLLEQLKNRFIVHQHQLKSEMDDSFFSDLQRVEGIIGSKLRVDGHLLDQAPHLKIVTNISVGYDNLEIEELTKRGIMATNTPDVLTDTVADTVFGLLLATSRRICELDQYVKLGRWDENIGEHLFGVDVHHKTLGIIGMGRIGLAVAERAHYGFKMKIVYHNRSTHSYAEKNINATYASLEELLTVSDFVLVMAPLVPETVKLIGEKEFDLMKETAIFLNGSRGELVDELALIHALQSKKIWGAGLDVYEQEPISKESLLLQLKNVVTLPHIGSATRETRYKMAKLAVDNLMKGFTGEVPPSLINPDVLTDEGHHHHHH”, the “soluble on expression in E. coli” value is reported as “not soluble”.
